Measurements as given in publication PMC4176167, “Solution structure and intramolecular exchange of methyl-cytosine binding domain protein 4 (MBD4) on DNA suggests a mechanism to scan for mCpG/TpG mismatches”.

Key:
Trx-His6-MBD4 MBD (SPR) = Trx-His6-MBD4 MBD (SPR) (Homo sapiens, UniProt O95243 80-148); assay: SPR; SPR running buffer: 10 mM HEPES pH 7.4, 50 mM NaCl, 3 mM MgCl2, 0.1 mM EDTA, 1 mM DTT, 0.1% BSA, 0.005% polysorbate 20 (samples prepared at pH 6.5); temperature not given; NMR buffer not given (low salt, up to 100 mM NaCl in titration); conditions: protein: recombinant, tags: N-terminal thioredoxin and His6 fusion (modified pET32a), retained for SPR, label: 3' biotin on strand 1 (SPR only), blunt
Trx-His6-MBD4 MBD (SPR), sequence (O95243 80-148): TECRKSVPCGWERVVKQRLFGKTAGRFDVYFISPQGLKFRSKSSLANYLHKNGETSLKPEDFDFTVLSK

[1] = biological target: Trx-His6-MBD4 MBD Y109F (SPR) (Homo sapiens, UniProt O95243 80-148, Y109F); assay: as above; conditions: protein: recombinant, tags: N-terminal thioredoxin and His6 fusion, retained for SPR, label: 3' biotin on strand 1 (SPR only), blunt
Trx-His6-MBD4 MBD Y109F (SPR), sequence (O95243 80-148 Y109F): as the sequence (O95243 80-148) above, with Y30F counted along it

cMBD2 MBD (NMR) [2] = biological target: T1, cMBD2 MBD (NMR) (UniProt Q5EFL0 2-70); assay: NMR (TROSY HSQC); slow to intermediate exchange between sites; SPR running buffer: 10 mM HEPES pH 7.4, 50 mM NaCl, 3 mM MgCl2, 0.1 mM EDTA, 1 mM DTT, 0.1% BSA, 0.005% polysorbate 20 (samples prepared at pH 6.5); temperature not given; NMR buffer not given (low salt, up to 100 mM NaCl in titration); conditions: protein: recombinant; tags: tags removed by thrombin; blunt
T1 sequence (Q5EFL0 entry or part of it): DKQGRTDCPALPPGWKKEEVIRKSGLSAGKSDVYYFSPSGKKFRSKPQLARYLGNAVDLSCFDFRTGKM

cMBD2 MBD (NMR) [3] = biological target: T1, cMBD2 MBD (NMR); assay: NMR (TROSY HSQC); fast exchange between sites; SPR running buffer: 10 mM HEPES pH 7.4, 50 mM NaCl, 3 mM MgCl2, 0.1 mM EDTA, 1 mM DTT, 0.1% BSA, 0.005% polysorbate 20 (samples prepared at pH 6.5); temperature not given; NMR buffer not given (low salt, up to 100 mM NaCl in titration); conditions: protein: recombinant; tags: tags removed by thrombin; blunt
cMBD2 MBD (NMR) [4] = biological target: T1, cMBD2 MBD (NMR); assay: NMR (HSQC, Nz-exchange); SPR running buffer: 10 mM HEPES pH 7.4, 50 mM NaCl, 3 mM MgCl2, 0.1 mM EDTA, 1 mM DTT, 0.1% BSA, 0.005% polysorbate 20 (samples prepared at pH 6.5); temperature not given; NMR buffer not given (low salt, up to 100 mM NaCl in titration); conditions: protein: recombinant; tags: tags removed by thrombin; blunt
[5] = one G:T mismatch (strand 1 G10, strand 2 T8)

B1: mCpG/TpG mismatch (17 bp) (dsDNA)
DNA 1: GAGGCGCTCGGCGGCAG
DNA 2: CTGCCGCTGAGCGCCTC
modifications: 5-methyl-C at strand 1 position 9
For B1, the Kd (Trx-His6-MBD4 MBD (SPR); [5]) was 11.5 ± 1.2 µM and the Kd [1, 5] was 14 ± 1.4 µM.

B2: CpG (17 bp) (dsDNA)
DNA 1: GAGGCGCTCGGCGGCAG
DNA 2: CTGCCGCCGAGCGCCTC
B2 showed a Kd [1] of 19.6 ± 3.5 µM.

B3: hmCpG (17 bp) (dsDNA)
DNA 1: GAGGCGCTCGGCGGCAG
DNA 2: CTGCCGCCGAGCGCCTC
modifications: 5-hydroxymethyl-C at strand 1 position 9 and strand 2 position 8
Binder B3 has a Kd [1] of 16 ± 3 µM.

B4: Tandem (30 bp) (dsDNA)
DNA 1: CACGGATCGGCTCCCCCGAGTCGGTCCCGC
DNA 2: GCGGGACCGACTCGGGGGAGCCGATCCGTG
modifications: 5-methyl-C at strand 1 positions 8 and 22 and strand 2 positions 8 and 22
B4: binds (cMBD2 MBD (NMR) [2]).

B5: Tandem (20 bp) (dsDNA)
DNA 1: GGATCGGCTCGGACCGACTC
DNA 2: GAGTCGGTCCGAGCCGATCC
modifications: 5-methyl-C at strand 1 positions 5 and 15 and strand 2 positions 5 and 15
B5: binds (cMBD2 MBD (NMR) [3]).

B6: mCpG (17 bp) (dsDNA)
DNA 1: GAGGCGCTCGGCGGCAG
DNA 2: CTGCCGCCGAGCGCCTC
modifications: 5-methyl-C at strand 1 position 9 and strand 2 position 8
B6 gave a Kd (Trx-His6-MBD4 MBD (SPR)) of 6.4 ± 1.5 µM and a Kd [1] of 7.9 ± 1.6 µM.

B7: Inverted (10 bp) (dsDNA)
DNA 1: GGACCGACTC
DNA 2: GAGTCGGTCC
modifications: 5-methyl-C at position 5 of both strands
B7: binds (cMBD2 MBD (NMR) [4]).

B8: mCpG (10 bp), wild-type (dsDNA)
DNA 1: GGATCGGCTC
DNA 2: GAGCCGATCC
modifications: 5-methyl-C at position 5 of both strands
B8: binds (cMBD2 MBD (NMR) [4]).
